Results taken from publication PMC2777438.

T1: ArtA (Staphylococcus aureus plasmid pSK41, UniProt Q52270 1-62)
T1 sequence: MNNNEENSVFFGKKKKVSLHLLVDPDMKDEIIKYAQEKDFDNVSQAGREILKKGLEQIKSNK

T2: Δ14ArtA (Staphylococcus aureus plasmid pSK41, UniProt Q52270 15-62, del1-14)
T2 chain: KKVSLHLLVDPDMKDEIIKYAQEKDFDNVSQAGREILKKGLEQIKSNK

B1: Porf538 21-mer (dsDNA)
DNA 1: ACACGACATGAAATGACACGT
DNA 2: ACGTGTCATTTCATGTCGTGT
B2: 12-mer consensus (crystal) (dsDNA)
DNA 1: GACATGACATGT
DNA 2: CACATGTCATGT
modifications: 5-bromouracil at thymines (MAD DNA only)
B3: Porf259 24-mer (dsDNA)
DNA 1: TAAACATTGCATAACATGACAGGT
DNA 2: ACCTGTCATGTTATGCAATGTTTA
B4: PtraA operator (dsDNA)
DNA 1: TTACATGACATGACATGTAATAC
DNA 2: GTATTACATGTCATGTCATGTAA
B5: Porf538 Mutant 1 (dsDNA)
DNA 1: ACACTAAATGAAATGACACGT
DNA 2: ACGTGTCATTTCATTTAGTGT
B6: 16-mer consensus (dsDNA)
DNA 1: ACATGACATGACATGT
DNA 2: ACATGTCATGTCATGT
B7: Porf259 11-mer (dsDNA)
DNA 1: ACATGACAGGT
DNA 2: ACCTGTCATGT
B8: 22-mer operator (dsDNA)
DNA 1: CAAACATGATATGACATGTAAT
DNA 2: ATTACATGTCATATCATGTTTG
B9: Porf538 Mutant 2 (dsDNA)
DNA 1: ACACGACATGAAATTAAACGT
DNA 2: ACGTTTAATTTCATGTCGTGT
B10: Porf538 right half site (dsDNA)
DNA 1: AAATGACACGT
DNA 2: ACGTGTCATTT
B11: PartA operator (dsDNA)
DNA 1: TTGTCATGACATGTCATGTGTAA
DNA 2: TTACACATGACATGTCATGACAA
B12: Porf538 left half site (dsDNA)
DNA 1: ACACGACATCA
DNA 2: TGATGTCGTGT
B13: 11-mer consensus (dsDNA)
DNA 1: ACATGACATGT
DNA 2: ACATGTCATGT
B14: PtraL operator (dsDNA)
DNA 1: TGCATTACATGACATGACATGTAAT
DNA 2: ATTACATGTCATGTCATGTAATGCA

What follows are binders tested against T1, ArtA (assay: fluorescence polarization).

Row | Binder | Kd [nM]
1 | B1 | 60 ± 10

Biological target: T1, ArtA
Assay: fluorescence polarization
Remark: another data set of the same source

Row | Binder | Kd [nM]
2 | B1 | 42 ± 7

Biological target: T1, ArtA
Assay: fluorescence polarization
Remark: another data set of the same source

Row | Binder | Kd [nM]
3 | B1 | 58 ± 5

These binders were tested against T1, ArtA (assay: crystal structure).

Row | Binder | binding result
4 | B2 | binds

Biological target: T1, ArtA
Assay: fluorescence polarization
Remark: another data set of the same source

Row | Binder | binding result
5 | B3 | no binding

Biological target: T2, Δ14ArtA
Assay: fluorescence polarization

Row | Binder | Kd [nM] | binding result
6 | B4 | 52 ± 6 | –
7 | B1 | – | no binding
8 | B5 | – | no binding
9 | B6 | 58 ± 3 | –
10 | B7 | – | no binding
11 | B8 | 58 ± 5 | –
12 | B3 | – | no binding
13 | B9 | – | no binding
14 | B10 | – | no binding
15 | B11 | 41 ± 9 | –
16 | B12 | – | no binding
17 | B13 | 222 ± 8 | –
18 | B14 | 39 ± 5 | –

Biological target: T1, ArtA
Assay: fluorescence polarization
Remark: another data set of the same source

Row | Binder | Kd [nM] | binding result
19 | B4 | 42 ± 9 | –
20 | B5 | – | no binding
21 | B6 | 60 ± 3 | –
22 | B7 | 790 ± 34 | –
23 | B8 | 62 ± 6 | –
24 | B9 | – | no binding
25 | B10 | – | no binding
26 | B11 | 28 ± 8 | –
27 | B12 | – | no binding
28 | B13 | 127 | –
29 | B14 | 23 ± 5 | –
